# According to article PMC3365070, “Overexpression of a Maize Sulfite Oxidase Gene in Tobacco Enhances Tolerance to Sulfite Stress via Sulfite Oxidation and CAT-Mediated H2O2 Scavenging” (PLoS ONE, 2012):
# B1: ZmSO (recombinant maize sulfite oxidase) (Zea mays subsp. mays) (protein)
# chain: MPGLTAPSDYAEEPPRHPALKINSKEPFNAEPHRSELVASYITPVDFFYKRNHGPIPKVEDLSRYTVSISGLVNKSIQLSMADIWSLPKYNVTATLQCAGNRRTAMSNVRKVRGVGWDISALGTATWGGAKLSDVLELVGIPKLSSVTSLGGKHVEFVSVDKCKEEKGGPYTASIPLNQATNPDADVLLAYEMNGEVLNRDHGYPLRVVVPGVIGARSVKWLDSINVKEEECQGFFMQKDYKMFPPTVDWDNINWSTRRPQMDFPVQSAICTLEDVDVIKEGQARIAGYALSGGGRGIERVDVSADGGKTWVEARRYQKDNVAYVSDGPQSDKWAWVLFEATLDVPANPEIVVKAVDSAANVQPEKVEDIWNLRGILNTSWHRIKIQRSSCVERSKL
# notes: 45 kDa; Mo domain, no heme domain; primers give N-terminus MPGLTA
# Substrate: O=S(O)O
# Assay: purified protein
# Assay type: biochemical, Zea mays
# Settings: 400 µM ferricyanide as electron acceptor, sulfite 2.5-400 µM, 20 mM Tris-HCl pH 8.0 (general SO assay)
protein,measurement,value
B1,Km,21.4 ± 0.32 µM
